Substrate: O=C(O)C(=O)Cc1ccccc1
Assay: purified protein
Assay type: biochemical, Saccharomyces cerevisiae
Details: ThDP, Mg2+

Protein | Km [µM] | Vmax [µmol/min/mg] | kcat/Km [M⁻¹ s⁻¹]
Phenylpyruvate decarboxylase Aro10p (Aro10p^HJ) (Saccharomyces cerevisiae S288C; A377V/K527R) (protein) MAPVTIEKFVNQEERHLVSNRSATIPFGEYIFKRLLSIDTKSVFGVPGDFNLSLLEYLYSPSVESAGLRWVGTCNELNAAYAADGYSRYSNKIGCLITTYGVGELSALNGIAGSFAENVKVLHIVGVAKSIDSRSSNFSDRNLHHLVPQLHDSNFKGPNHKVYHDMVKDRVACSVAYLEDIETACDQVDNVIRDIYKYSKPGYIFVPADFADMSVTCDNLVNVPRISQQDCIVYPSENQLSDIINKITSWIYSSKTPAILGDVLTDRYGVSNFLNKLICKTGIWNFSTVMGKSVIDESNPTYMGQYNGKEGLKQVYEHFELCDLVLHFGVDINEINNGHYTFTYKPNAKIIQFHPNYIRLVDTRQGNEQMFKGINFVPILKELYKRIDVSKLSLQYDSNVTQYTNETMRLEDPTNGQSSIITQVHLQKTMPKFLNPGDVVVCETGSFQFSVRDFAFPSQLKYISQGFFLSIGMALPAALGVGIAMQDHSNAHINGGNVKEDYKPRLILFEGDGAAQMTIQELSTILRCNIPLEVIIWNNNGYTIERAIMGPTRSYNDVMSWKWTKLFEAFGDFDGKYTNSTLIQCPSKLALKLEELKNSNKRSGIELLEVKLGELDFPEQLKCMVEAAALKRNKK | 86.36 ± 6.18 | 2.11 | 595000 ± 33500
Phenylpyruvate decarboxylase Aro10p (Aro10p^S288C) (Saccharomyces cerevisiae S288C) (protein) MAPVTIEKFVNQEERHLVSNRSATIPFGEYIFKRLLSIDTKSVFGVPGDFNLSLLEYLYSPSVESAGLRWVGTCNELNAAYAADGYSRYSNKIGCLITTYGVGELSALNGIAGSFAENVKVLHIVGVAKSIDSRSSNFSDRNLHHLVPQLHDSNFKGPNHKVYHDMVKDRVACSVAYLEDIETACDQVDNVIRDIYKYSKPGYIFVPADFADMSVTCDNLVNVPRISQQDCIVYPSENQLSDIINKITSWIYSSKTPAILGDVLTDRYGVSNFLNKLICKTGIWNFSTVMGKSVIDESNPTYMGQYNGKEGLKQVYEHFELCDLVLHFGVDINEINNGHYTFTYKPNAKIIQFHPNYIRLVDTRQGNEQMFKGINFAPILKELYKRIDVSKLSLQYDSNVTQYTNETMRLEDPTNGQSSIITQVHLQKTMPKFLNPGDVVVCETGSFQFSVRDFAFPSQLKYISQGFFLSIGMALPAALGVGIAMQDHSNAHINGGNVKEDYKPRLILFEGDGAAQMTIQELSTILKCNIPLEVIIWNNNGYTIERAIMGPTRSYNDVMSWKWTKLFEAFGDFDGKYTNSTLIQCPSKLALKLEELKNSNKRSGIELLEVKLGELDFPEQLKCMVEAAALKRNKK | 102.24 ± 2.15 | 2.26 | 597000 ± 20500

— publication PMC10755794
